Columns and labels:
[1] = assay type: cell-based, P. pastoris
Method: Precultures of P. pastoris transformants were prepared in buffered complex glycerol media (BMGY). BMGY contained: 10 g/l yeast extract, 20 g/l peptone, 3.4 g/l yeast nitrogen base, 10 g/l ammonium sulfate, 100 mM potassium phosphate (pH 6), 0.4 mg/l biotin and 1% (v/v) glycerol. Erlenmeyer flasks (500 ml) containing 50 ml BMGY media were inoculated with single colonies of 24 h old YPD-agar cultures of P. pastoris KM71 mut^s3/CYP505E3 and incubated at 30° C. and 225 rpm for 24 h. The cultures were harvested using pre-weighed centrifuge tubes at 3000 g for 5 min and stored on ice until further use.
The main cultures for expression were prepared in buffered complex methanol media (BMMY) containing 10 g/l yeast extract, 20 g/l peptone, 3.4 g/l yeast nitrogen base, 10 g/l ammonium sulfate, 100 mM potassium phosphate (pH 6), 0.4 mg/l biotin and 0.5 or 1% (v/v) methanol. Harvested cells from precultures were resuspended in BMMY media to final concentration of 1 g WC per 40 ml (appx. 25 g/l). The resuspended cultures (100 ml) were transferred to 500 ml Erlenmeyer flasks and incubated at 25° C. and 225 rpm for 24 h. The cultures were then harvested at 3000 g for 5 min using pre-weighed centrifuge tubes.
Different transformants of Pichia pastoris KM71 harbouring the CYP505 genes for SEQ ID Nos 1 to 7 and 9 to 12 were grown and harvested as described above. The harvested cells were resuspended to give 1 g wet cell weight in 40 ml MOPS buffer (200 mM, 100 mM glucose, 100 mM glycerol, pH 8) and 1 ml aliquots of these cell suspensions were transferred to 40 ml amber vials. Dodecane, 1-dodecanol and 1-tetradecanol were added neat to these cell suspensions to give final concentrations of 200 mM in the case of the alcohols and 1 M in the case of dodecane while in the case of dodecanoic acid 20 μl of a 500 mM stock solution (in DMSO) was added to give a final concentration of 10 mM. Transformants harbouring the CYP505 genes for SEQ ID Nos 1 to 4 were tested for the biotransformation of 1-dodecanol, 1-tetradecanol, dodecanoic acid, tetradecanoic acid and dodecane, while those harbouring the CYP505 genes for SEQ ID Nos 5 to 7 and 9 to 12 were only tested for the biotransformation of 1-dodecanol and dodecanoic acid. The biotransformations were incubated at 25° C. and 225 rpm for 24 h. Extractions were performed using ethyl acetate (500 μl×2). The extracts were analyzed using GC/MS.

[2] = Biotransformation of dodecanoic acid using CFE of E. coli, Tris-HCl buffer; assay type: biochemical; settings: 5 mmol/L substrate, CFE of E. coli, Tris-HCl, 24 h
Method: (§1) Expression of genes in E. coli was performed by using ZYP-5052 auto-induction medium (Table 1) with in the case of the CYP 1 mM 5-aminolevulinic acid and 0.05 mM FeCl3 added. The CYP505E3 culture was cultivated using baffled flasks and incubated at 20° C. and 180 rpm for 24 h, while the GDH, and HLADH expressing cultures were all cultivated at 25° C. and 200 rpm for 24 h. Cultures were harvested through centrifugation (6 000×g, 10 min) and 1 g (wet weight) resuspended in 2 ml, 5 ml or 10 ml Tris-HCl, Phosphate or MOPS buffer, as indicated, (pH 8, 200 mM) containing 100 mM of glucose and glycerol. CFEs were obtained by a single passage of the suspended cells through a One Shot Cell Disrupter (Constant Systems) at 207 MPa. The soluble fraction was separated from unbroken cells by centrifugation (20 000×g, 20 min).
(§2) The biotransformation reaction mixture (BRM) consisted of CYP and GDH CFE suspensions prepared from cells in Tris-HCl buffers (1 g wet weight in 2 ml buffer) mixed in a 1:1 ratio with 0.1 mM NADPH added. Dodecanoic acid, tetradecanoic acid, hexadecanoic acid, 1-tetradecanol and 1-hexadecanol (20 μl of a 255 mM stock solution in DMSO) were added to 40 ml amber glass vials containing 1 ml BRM to give final substrate concentrations of 5 mmol·LBRM^−1. These vials were placed on an orbital shaker at 20° C., 200 rpm, oscillation amplitude 26 mm. Vials were removed after 24 h for extraction. Biotransformations were stopped by adding 170 ul of 0.5M HCl, extracted with 2×500 μl EtOAc and subjected to GC-MS analysis. A sample of δ-dodecalactone in ethyl acetate (0.1 mM) was also methylated with TMSH and subjected to GC-MS analysis.

[3] = Biotransformation of 1-tetradecanol using CFE of E. coli, Tris-HCl buffer; assay type: biochemical; settings: 5 mmol/L substrate, CFE of E. coli, Tris-HCl, 24 h
Method: as §1
as §2, with “Vials were removed after 24 h for extraction. Biotransformations were stopped by adding 170 ul of 0.5M HCl, extracted with 2×500 μl EtOAc and subjected to GC-MS analysis. A sample of δ-dodecalactone in ethyl acetate (0.1 mM) was also methylated with TMSH and subjected to GC-MS analysis.” left out

[4] = Biotransformation of hexadecane using CFE of E. coli expressing CYP505E3; assay type: biochemical
Method: as §1
(§3) Biotransformations of dodecane, tetradecane and hexadecane were carried using only CYP505E3 containing CFE prepared from an E. coli cell suspension (1 g wet weight in 10 ml buffer) in MOPS buffer (200 mM, pH 8) containing glucose and glycerol (100 mM each) as well as 0.1 mM NADPH. Alkane substrates (250 μL) were added to 1 mL BRM in 40 ml amber glass vials. These vials were placed on an orbital shaker at 20° C., 200 rpm, oscillation amplitude 26 mm and incubated for 24 h.

[5] = Biotransformation of 1-hexadecanol using CFE of E. coli, Tris-HCl buffer; assay type: biochemical; settings: 5 mmol/L substrate, 24 h
Method: as §1
as §2, with “Vials were removed after 24 h for extraction. Biotransformations were stopped by adding 170 ul of 0.5M HCl, extracted with 2×500 μl EtOAc and subjected to GC-MS analysis. A sample of δ-dodecalactone in ethyl acetate (0.1 mM) was also methylated with TMSH and subjected to GC-MS analysis.” left out

[6] = assay type: biochemical, E. coli
Method: as §1, §3

[7] = Time course of biotransformation of 50 mM C12 fatty acid using CFE of E. coli in MOPS buffer; assay type: biochemical; settings: 50 mM dodecanoic acid, 0.2 μM CYP
Method: as §1, with “min). […]” for “min).”
After extraction aliquots (50 μl) of ethyl acetate extracts containing both decanoic acid and tetradecanol as internal standards were methylated for GC-MS analysis while the rest of the extracts were washed with a Na2CO3 (5% w/v) solution to remove the fatty acids. The washed ethyl acetate extracts were also analysed by GC-MS and the δ-dodecalactone and γ-dodecalactone concentrations determined from a standard curve.

[8] = whole cell biotransformations, E. coli; cited from earlier work

B1: CYP505E3: self-sufficient cytochrome P450 monooxygenase from Aspergillus terreus, SEQ ID No 1 (protein, listed as Aspergillus terreus)
chain: MIKETEQIPGPRPLPVVGNLFDMDLEHGLECLIRLADDFGPLFQITINGEKQIFATSQALVDELCDESRFHKAVMGGLEKLRMLASDGLFTAYHGERGWGIAHRILVPAFGPLRIRNMFEEMNDVAQQLCLKWARQGSSTSINITDDFTRLTLDTIALCTMNFRLNSFYNNETMHPFVKSMLYVLRESDIQSMLPGIANCIRVKARSRMSKHIQLMRNMARGIIQERRDQAEPVDDLLNTLLNGRDPVTGEGMSDDLIINNVITFLIAGHETTSGLLSFTFYYLLQNPHILERAQNEVDEVTGGERITVQHLGRLTYIDAILKESLRLMPTAPAFTVTPKKPEVLGGAWAIDAGQAVNVLLPVCLRDRSVFGPDADEFRPERMLEENFSKLPPNSWKPFGNGERSCIGRAFAWQEAQLVVAMVLQTFDLVPDDPSYKLRIKETLTIKPDGFRVRATLRRGQSATGLSQGSMSASGATSSVASPGPPAATGAQSNPAGGQRISFFYGSNSGTCKALAHRLASSLMGRGFTEQKLAALDTVVGNLPTDQPVIIVTTSYDGRPTDDAEEFVRWLESKRPVLQGVSYAVFGCGHHDWAKTFYRIPILIDDLMHKAGATRLTALGTANAAVSDLFSDLELWEETNLLPALREAFPPSNSSDVESSEPHQLQICVSKPRRVDMHRGLVEAKVTAVRTLTSPDSPEKRHVEFHVQGDTTWRPGDHVNILPVNPLSTVSRVLAYFQLAPDHSITVNSFNTQGLPSATPVSATELFSSFVELSQPATRKNLKALAMAAESKTDEQELIRLHDSYDALVRDKRVSVLDILERFPSISLPIGIFISMLPPLRLRTYSLSMAPSFKPSHGSLTFSVINEPAWSGNGQYLGVGSNYLASLTPGSLLYLSPRPAKDAFHLPADQFNTPIIMICAGSGLAPFMGFIQERMTWLKQGRPLAKGLLFFGCRGPHLDDLYYEELSEFEDAGVVEVHRAYSRAPDDVRAKGCRHVQHRLVTEAEAVRDHWGRNAIVYVCGSSNMARGVQTVLEEILGTLPPERYVAEIF
With B1 the “products produced from tetradecanoic acid (GC-MS)” value [1] was “only 7-hydroxy tetradecanoic acid”, the “products identified from dodecanoic acid (GC-MS, methylated samples)” value [2] was “δ-dodecalactone and the methyl ester of 5-hydroxy dodecanoic acid” and the “products detected from tetradecanol (GC-MS)” value [3] was 1,7-tetradecane diol and 1,8-tetradecane diol. The “ω-7 hydroxylase activity C16alk” value ([4]; C16 alkane, GC-MS peak height) was “+ (+ − 0.01 million < RA < 0.1 million)”, the “product from hexadecane (GC-MS)” value ([4]; MOPS buffer, 24 h) was 8-hexadecanol and the “products detected from hexadecanol (GC-MS)” value [5] was “did not allow detection of any products”. The “product from dodecane (GC-MS)” value [6] was 5-dodecanol, the “product from tetradecane (GC-MS)” value [6] was 7-tetradecanol and the “lactone concentrations in the washed ethyl acetate samples” value ([7]; Na2CO3 washed, not methylated) was 0.6 mmol·LBRM^−1. For the same molecule, the “lactone concentrations in the unwashed samples” value ([7]; unwashed, methylated) was 1.6 mmol·LBRM^−1 and the “activity towards alkanes and alkylbenzens” value [8] was “no detectable activity”.

Source: patent US10975360B2, “Process for the modification of alkanes, fatty acids and fatty alcohols” (priority 2016, dated 2021)
